Data reported in patent US20030099644A1.

Molecular target: CD40 on murine bone cells (MLO-Y4 osteocyte cell line, primary osteoblasts, MC3T3, OCT-1 and 2T3 osteoblast cell lines) (mouse) (UniProt P27512)
Experiment: cell-based or functional assay

UniProt P27512, sequence (P27512 20-289): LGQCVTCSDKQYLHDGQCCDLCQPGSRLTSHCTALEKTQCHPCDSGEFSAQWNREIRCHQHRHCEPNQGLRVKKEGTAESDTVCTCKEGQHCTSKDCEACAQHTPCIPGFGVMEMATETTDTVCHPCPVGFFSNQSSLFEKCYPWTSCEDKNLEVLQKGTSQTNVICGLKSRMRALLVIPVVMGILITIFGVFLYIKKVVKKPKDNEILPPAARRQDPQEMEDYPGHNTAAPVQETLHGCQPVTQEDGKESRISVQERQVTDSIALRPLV

Soluble, trimeric CD40L (ligand)
percent positive cells, Annexin V (MLO-Y4 cells, CD40L alone) (percent positive cells): 11.5
percent positive cells, Annexin V (MLO-Y4 cells, Dex + CD40L) (percent positive cells): 13.7
percent positive cells, Annexin V (MLO-Y4 cells, TNF + CD40L) (percent positive cells): 13.9
percent positive cells, GFP (MLO-Y4 cells, CD40L alone) (percent positive cells): 8.7
percent positive cells, GFP (MLO-Y4 cells, Dex + CD40L) (percent positive cells): 9.9
percent positive cells, GFP (MLO-Y4 cells, Etoposide + CD40L) (percent positive cells): 8.4
percent positive cells, GFP (MLO-Y4 cells, TNF + CD40L) (percent positive cells): 15
percent positive cells, Trypan Blue (MLO-Y4 cells, CD40L alone) (percent positive cells): 7.2
percent positive cells, Trypan Blue (MLO-Y4 cells, Dex + CD40L) (percent positive cells): 7.8
percent positive cells, Trypan Blue (MLO-Y4 cells, Etoposide + CD40L) (percent positive cells): 7.9
percent positive cells, Trypan Blue (MLO-Y4 cells, TNF + CD40L) (percent positive cells): 12.9
